Results reported in patent US8173133B2, “Acyl pseudodipeptides which carry a functionalized auxiliary arm” (OM Pharma, priority 1999, dated 2012).

Experiments:
[1] = tested on: human peripheral blood mononuclear cells; test: inhibition of E. coli LPS-induced α TNF production in human peripheral blood mononuclear cells; assay type: cell-based; details: product 10 μg/ml
Procedure: Mononuclear cells of peripheral blood are recovered from buffy coats of 6 healthy donors. Such buffy coat cells are resuspended and mononuclear cells are isolated by centrifugation on a Ficoll-Paque gradient (Amersham Pharmacia). Purified mononuclear cells are resuspended into RPMI-1640 medium supplemented with 10% FCS, antibiotics, mercaptoethanol and L-glutamine. Cell concentration is adjusted to 2×10^6 viable cells/ml.
Product mediated Inhibition is determined by preincubating those products with mononuclear cells, and adding, 1 hour later, serially diluted solutions of LPS capable of inducing α TFN production. […] E. coli LPS is serially diluted (10-fold dilution) to be in the range of 1 to 0.00001 μg/ml
50 μl of 10 μg/ml dilute product solutions in RPMI 1640 medium are dispensed into a microtiter plate. Each assay (10 μg/ml product concentration+dilute E. coli LPS) is run in triplicates and each microtiter plate includes a negative control comprised of plain medium. LPS-induced α TNF production (without inhibitor) is determined by adding E. coli LPS dilutions to RPMI medium.
100 μl of the cell suspension are added to each well containing dilutions of either product or control. Cells are incubated with the products for 1 hour in an incubator at 37° C., under 5% CO2 and a moisture saturated atmosphere.
At the end of the pre-incubation period, 50 μl of serially diluted solutions of E. coli LPS are added. Incubation of mononuclear cells with the product and LPS is extended for 18 hours. At the end of the cell activation period, the microtiter plates are centrifuged, and the supernatants are pooled and frozen at −80° C. as aliquots until time of ELISA assay.
Concentration of αTNF secreted by mononuclear cells is determined by chemiluminescent ELISA (QuantiGlo #QTAOO R&D kit). 4-fold dilutions of supernatant fluid are dispensed into each well of the microtiter plate to which anti-human αTNF antibodies are bound. The microtiter plate is incubated for 4 hours at room temperature. After washing, peroxidase-conjugated anti-human αTNF antibody is added. Following a 2 hour incubation period and a thorough washing, a chemiluminescent substrate is added and chemilunescence is read after 20 minutes. αTNF content in the supernatant fluid is determined with respect to a standard curve covering the 7000 to 0.7 pg/ml range.
Inhibition is characterized by the E. coli LPS concentration which elicits 50% production of α TNF during co-incubation in comparison to a control including only RPMI. This concentration increases as product inhibition activity becomes stronger. Knowing inhibition values of α TNF production, this concentration is given by calculating 100-(αTNF production induced by product and LPS)/(αTNF production induced by LPS alone)*100. From these inhibition data, concentration is determined by linear regression along the line segment which joins 2 LPS dilutions giving approx. 50% inhibition.
Product ability to inhibit α TNF production in mononuclear cells in response to LPS is further characterized by maximum inhibition. […] Results are calculated from a representative experience using all products.

[2] = tested on: human peripheral blood mononuclear cells; test: α TNF production by human peripheral blood mononuclear cells; assay type: cell-based; details: 18 hours
Procedure: Mononuclear cells of peripheral blood are recovered from buffy coats of 6 healthy donors. Such buffy coat cells are resuspended and mononuclear cells are isolated by centrifugation on a Ficoll-Paque gradient (Amersham Pharmacia). Purified mononuclear cells are resuspended into RPMI-1640 medium supplemented with 10% FCS, antibiotics, mercaptoethanol and L-glutamine. Cell concentration is adjusted to 2×10^6 viable cells/ml
100 μl of each one of these solutions of acyl dipeptide-like compounds bearing an accessory functional side chain spacer, diluted 100-, 10- or 1-fold in RPMI medium 1640, are dispensed into a microtiter plate. Samples are tested in triplicates, and each microtiter plate includes a negative control made up of plain medium. Dilutions of E. coli LPS (ranging grom 1 to 0.00001 μg/ml) are used as a positive control.
100 μl of the cell suspension are added to each well containing product dilute solutions or control. Cells are incubated with the products for 18 hours in an incubator at 37° C., under 5% CO2 and a moisture saturated atmosphere.
At the end of the incubation period, microtiter plates are centrifuged, and the supernatant fluids are pooled and frozen at −80° C. as aliquots until time of ELISA assay.
Concentration of α TNF secreted by mononuclear cells is determined by chemiluminescent ELISA (QuantiGlo #QTAOO R&D kit). 4-fold supernatant fluid dilutions are dispensed into each well of the microtiter plate to which anti-αTNF antibodies are bound. The microtiter plate is incubated for 4 hours at room temperature. After washing, peroxidase-conjugated anti-human a TNF antibody is added. Following a 2 hour incubation period and thorough washing, a chemiluminescent substrate is added and chemilunescence is read after 20 minutes. α TNF content in the supernatant fluid is determined with respect to a standard curve covering the 7000 to 0.7 pg/ml range.
Results are expressed in pg/ml of α TNF produced. Results derive from an experiment representative of acyl-dipeptide-like compound activity

murine macrophage cells = test: nitric oxide production by murine macrophage cells (Griess); assay type: cell-based, C57/BL6 mice
Excerpt: Six-week old male C57/BL6 mice are killed by CO2 inhalation. The hip, femur, tibia and posterior appendage bones are removed. The bone marrow is extracted from the bone lumen by injecting Dulbecco's Modified Eagle Medium (DH medium) from the end portions which had been excised. The stem cells are washed and resuspended (approximate cell concentration 4000 cells/ml) in DH medium supplemented with 20% equine serum (SH) and 30% L929 cell supernatant. L929 is a murine fibroblast cell line the supernatant fluid of which is rich in growth factor for macrophage cells (M-CSF). The cell suspension is divided into Petri dishes which are incubated for 8 days in an incubator at 37° C. under 8% CO2 and a moisture saturated atmosphere.
After 8 days, the stem cells have differentiated into mature macrophage cells. The macrophage cells are scraped off by rapid cooling, washed and resuspended in DH medium supplemented with 5% foetal calf serum (FCS), amino acids and antibiotics. The cell density is adjusted to 700 000 cells/ml.
Products previously dissolved in DH medium supplemented with 5% FCS, amino acids and antibiotics are serially diluted directly in microtiter plates. The products are tested in triplicates and each microtiter plate comprises a negative control containing plain medium. The final volume in each well is 100 μl.
100 μl of cell suspension are added to diluted solutions of such products and the cells are incubated for 22 hours in an incubator at 37° C., under 8% CO2 and a moisture saturated atmosphere. At the end of the incubation period with the products, 100 μl of supernatant are withdrawn and the nitrite concentration is determined by running a Griess reaction.
100 μl of Griess reagent (5 mg/ml of sulfanilamide+0.5 mg/ml of N-(1-naphtylethylene diamine hydrochloride)) in 2.5% aq. phosphoric acid, are added to each well. The microtiter plates are read with a spectrophotometer at 562 nm wavelength against a reference sample at 690 nm. The nitrite concentration is proportional to nitric oxide content being formed. The nitrite content is determined based on a standard curve.
The results are given as mean value±standard deviation and plotted as a dose versus response curve.
From this dose versus response curve, 3 curve variables are computed:
Max: maximum curve amplitude and corresponding concentration
EC50: concentration corresponding to 50% of maximum amplitude
Min: lowest concentration inducing a significant proliferation corresponding to the blank±3× standard deviation value
Concentration values corresponding to EC50 and Min are determined from line segments joining different points on the curve.
If the curve has no plateau phase but an ascending configuration for the highest concentration being tested, a “>” sign is shown before “Max” and “EC50” values.

Spleenic cells = test: murine spleenic cell proliferation (3H-TdR take-up); assay type: cell-based, CBA mice; details: 5 μg/ml, one day of culture, positive control
Procedure: Cell proliferation response is assessed by measuring triturated thymidine (^3H-TdR) take-up after 1 or 2 days of culture. Values reported in the table stand for the arithmetic mean±standard deviation of 4 cultures.

K562 cells = test: activation of NK cell cytotoxicity against K562 target cells (LDH release); assay type: cell-based, human
Procedure: PBMC were recovered from buffy coats according to the procedure previously described in example 4.6. […] Cells were incubated under such conditions for 24 hours. K562 cells (human leukemia cell line, ATCC #CCL 243, 20110-2209 Manassas (Va.), U.S.A.) were maintained in culture using RPMI medium containing 10% FCS and subjected to 2 passages per week.
In order to make cytotoxicity measurement, PBMC and K562 cells were washed twice in HBSS and resuspended in Phenol Red-free RPMI medium containing 5% FCS. PBMC were divided into a round bottom 96-well plate so as to achieve a PBMC/target ratio of 20/1, 10/1 and 5/1 in 50 μl volume. 5000 K562 cells (target) were added in each well using 50 μl of Phenol Red-free RPMI. Final volume was 100 μl. The plate was centrifuged to promote contact then incubated at 37° C. for 4 hours.
Cytotoxicity was assayed using a non radioactive CytoTox 96 kit based on measuring LDH release during cell lysis (kit #G1780, batch #124100, Promega, Madison, Wis.) according to the supplier's instructions.
The percentage of cytotoxicity was calculated according to the following equation: […]

[3] = tested on: Limulus Amoebocyte Lysate

Molecule: (3R,9R)-3-[(R)-3-dodecanoyloxytetradecanoylamino]-4oxo-5-aza-9-[(R)-3-hydroxytetradecanoylamino]-1,10-diol 1-dihydrogenphosphate 10-(6-aminohexanoate) [OM-197-MP-AC (R, R)]
- max. Inhibition [1]: 100%
- 50% inhibition LPS ([1]; LPS concentration at which α TNF production is 50% of control): 0.68 µg/mL
- max. Inhibition LPS ([1]; LPS concentration corresponding to maximum inhibition): 0.0013 µg/mL
- α TNF produced ([2]; product 1 μg/ml): 0 pg/mL
- α TNF produced ([2]; product 10 μg/ml): 88 pg/mL
- α TNF produced ([2]; product 100 μg/ml): 84 pg/mL
- Max concentration (murine macrophage cells; concentration at maximum amplitude): > 100 µg/mL
- EC50 conc (murine macrophage cells; concentration corresponding to 50% of maximum amplitude): > 15.32 µg/mL
- Min concentration (murine macrophage cells; lowest concentration inducing a significant response): 3.35 µg/mL

Molecule: Concanavalin A [reference compound]
- thymidine take-up (Spleenic cells): 37.5±6.2 ×10^3 cpm

B1: IFN-γ: γ IFN (1000 U/ml) stimulus (protein, UniProt P01579 24-161, looked up)
Interferon gamma: QDPYVKEAENLKKYFNAGHSDVADNGTLFLGILKNWKEESDRKIMQSQIVSFYFKLFKNFKDDQSIQKSVETIKEDMNVKFFNSNKKKRDDFEKLTNYSVTDLNVQRKAIHELIQVMAELSPAAKTGKRKRSQMLFRG
- % cytotoxicity (K562 cells; Ratio PBMC:K562 5.1): 17.9%
- Optical density at 490 nm, K562 + PBMC (K562 cells; Ratio PBMC:K562 5.1): 1.68
- Optical density at 490 nm, PBMC alone (K562 cells; Ratio PBMC:K562 5.1): 0.035
- % cytotoxicity (K562 cells; Ratio PBMC:K562 10.1): 29.4%
- Optical density at 490 nm, K562 + PBMC (K562 cells; Ratio PBMC:K562 10.1): 1.9
- Optical density at 490 nm, PBMC alone (K562 cells; Ratio PBMC:K562 10.1): 0.064
- % cytotoxicity (K562 cells; Ratio PBMC:K562 20.1): 39.3%
- Optical density at 490 nm, K562 + PBMC (K562 cells; Ratio PBMC:K562 20.1): 2.1
- Optical density at 490 nm, PBMC alone (K562 cells; Ratio PBMC:K562 20.1, stimulus 24 hours): 0.101

B2: Ovalbumin: antigen alone (ovalbumin, Fluka AG) (protein, UniProt P01012 2-386, looked up)
Ovalbumin: GSIGAASMEFCFDVFKELKVHHANENIFYCPIAIMSALAMVYLGAKDSTRTQINKVVRFDKLPGFGDSIEAQCGTSVNVHSSLRDILNQITKPNDVYSFSLASRLYAEERYPILPEYLQCVKELYRGGLEPINFQTAADQARELINSWVESQTNGIIRNVLQPSSVDSQTAMVLVNAIVFKGLWEKAFKDEDTQAMPFRVTEQESKPVQMMYQIGLFRVASMASEKMKILELPFASGTMSMLVLLPDEVSGLEQLESIINFEKLTEWTSSNVMEERKIKVYLPRMKMEEKYNLTSVLMAMGITDVFSSSANLSGISSAESLKISQAVHAAHAEINEAGREVVGSAEAGVDAASVSEEFRADHPFLFCIKHIATNAVLFFGRCVSP
- LAL EU/mg [3]: <0.8 EU/mg
- LAL ng of LPS equivalent per mg of product [3]: <0.064 ng of LPS equivalent per mg of product

B3: OM-197-FV-ovalbumin: OM-197-FV7 coupled to ovalbumin by reductive amination (conjugate, UniProt P01012 2-386, looked up)
Ovalbumin: GSIGAASMEFCFDVFKELKVHHANENIFYCPIAIMSALAMVYLGAKDSTRTQINKVVRFDKLPGFGDSIEAQCGTSVNVHSSLRDILNQITKPNDVYSFSLASRLYAEERYPILPEYLQCVKELYRGGLEPINFQTAADQARELINSWVESQTNGIIRNVLQPSSVDSQTAMVLVNAIVFKGLWEKAFKDEDTQAMPFRVTEQESKPVQMMYQIGLFRVASMASEKMKILELPFASGTMSMLVLLPDEVSGLEQLESIINFEKLTEWTSSNVMEERKIKVYLPRMKMEEKYNLTSVLMAMGITDVFSSSANLSGISSAESLKISQAVHAAHAEINEAGREVVGSAEAGVDAASVSEEFRADHPFLFCIKHIATNAVLFFGRCVSP
modifications: OM-197-FV coupled by reductive amination
- LAL EU/mg [3]: 99 EU/mg
- LAL ng of LPS equivalent per mg of product [3]: 8.21 ng of LPS equivalent per mg of product
